According to paper doi:10.1101/2025.09.13.676036:

How the values were obtained:
[1] = target: Caldanaerovirga acetigignens double ferritin-like protein (Caldanaerovirga acetigignens); assay: SEC-MALS
[2] = target: Thermocrinis minervae double ferritin-like protein (Thermocrinis minervae); assay: SEC-SAXS
[3] = target: Thermocrinis minervae double ferritin-like protein (Thermocrinis minervae); assay: SEC-MALS

stoichiometry N [1]	stoichiometry N [2]	stoichiometry N [3]	Substance
2			Caldanaerovirga acetigignens double ferritin-like protein (enzyme)
	2	2	Thermocrinis minervae double ferritin-like protein (enzyme)
